The values that follow come from the supplement of paper PMC9428881.

± gives the standard error.

The nature of this series: background-corrected fluorescence of 3'-dye-labeled ssDNA relative to brightest sequence (3'-GCGCG) (fraction); higher = brighter dye fluorescence (less quenching). Put shortly: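 Arrays of single-stranded DNA, with a 3' Cy3 or Cy5 dye beside each of 1024 permuted pentamers, were built on glass slides through light-directed phosphoramidite synthesis. They were washed for 2 h at r.t. in acetonitrile and scanned at 532 or 635 nm, once before and once after overnight ethylenediamine/ethanol deprotection. Fluorescence is reported after subtracting unlabeled-oligo background and normalizing to the brightest sequence. Averages cover 10 features per array and at least 3 syntheses.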

In the case of “TTTTTTGCGCATGCTGATGATTTTTTTTTTTTTTTATACC [CCATA]”, the background-corrected fluorescence is, setting by setting: (dye: Cy3 (3' terminal)) 0.411 ± 0.027; (dye: Cy5 (3' terminal)) 0.295 ± 0.018.
In the same order, the values of “TTTTTTGCGCATGCTGATGCTTTTTTTTTTTTTTTATACA [ACATA]” are 0.492 ± 0.031 and 0.372 ± 0.024.
Consider “TTTTTTGCGCATGCTGCGCATTTTTTTTTTTTTTTATAAT [TAATA]”, for which the background-corrected fluorescence (dye: Cy3 (3' terminal)) was determined as 0.567 ± 0.0072 and the background-corrected fluorescence (dye: Cy5 (3' terminal)) turned out to be 0.418 ± 0.026.
The like results for “TTTTTTGCGCATGCTGCTCATTTTTTTTTTTTTTTATAAG [GAATA]” were, in that order, 0.532 ± 0.019 and 0.429 ± 0.031.
The like results for “TTTTTTGCGCATGCTGCTGATTTTTTTTTTTTTTTATAAC [CAATA]” were, in that order, 0.434 ± 0.032 and 0.327 ± 0.023.
The like results for “TTTTTTGCGCATGCTGCTGCTTTTTTTTTTTTTTTATAAA [AAATA]” were, in that order, 0.567 ± 0.044 and 0.507 ± 0.069.
In the case of “TTTTTTGCTCAGCAGCAGCATTTTTTTTTTTTTTTAGTTT [TTTGA]”, the background-corrected fluorescence runs as follows: (dye: Cy3 (3' terminal)) 0.577 ± 0.017; (dye: Cy5 (3' terminal)) 0.404 ± 0.022.
In the same order, the values of “TTTTTTGCTCAGCAGCATCATTTTTTTTTTTTTTTAGTTG [GTTGA]” are 0.516 ± 0.037 and 0.408 ± 0.034.
The like results for “TTTTTTGCTCAGCAGCATGATTTTTTTTTTTTTTTAGTTC [CTTGA]” were, in that order, 0.433 ± 0.023 and 0.335 ± 0.025.
As to “TTTTTTGCTCAGCAGCATGCTTTTTTTTTTTTTTTAGTTA [ATTGA]”, the background-corrected fluorescence runs as follows: (dye: Cy3 (3' terminal)) 0.57 ± 0.0086; (dye: Cy5 (3' terminal)) 0.409 ± 0.016.
The like results for “TTTTTTGCTCAGCATCAGCATTTTTTTTTTTTTTTAGTGT [TGTGA]” were, in that order, 0.572 ± 0.021 and 0.474 ± 0.033.
In the same order, the values of “TTTTTTGCTCAGCATCATCATTTTTTTTTTTTTTTAGTGG [GGTGA]” are 0.625 ± 0.034 and 0.546 ± 0.076.
The like results for “TTTTTTGCTCAGCATCATGATTTTTTTTTTTTTTTAGTGC [CGTGA]” were, in that order, 0.518 ± 0.047 and 0.405 ± 0.024.
Regarding “TTTTTTGCTCAGCATCATGCTTTTTTTTTTTTTTTAGTGA”, the background-corrected fluorescence came out at 0.645 ± 0.022 (dye: Cy3 (3' terminal)) and 0.536 ± 0.037 (dye: Cy5 (3' terminal)).
In the same order, the values of “TTTTTTGCTCAGCATGAGCATTTTTTTTTTTTTTTAGTCT [TCTGA]” are 0.472 ± 0.018 and 0.368 ± 0.029.
For the sequence “TTTTTTGCTCAGCATGATCATTTTTTTTTTTTTTTAGTCG [GCTGA]”, the background-corrected fluorescence was found to be 0.579 ± 0.024 (dye: Cy3 (3' terminal)) and 0.444 ± 0.036 (dye: Cy5 (3' terminal)).
The like results for “TTTTTTGCTCAGCATGATGATTTTTTTTTTTTTTTAGTCC [CCTGA]” were, in that order, 0.41 ± 0.024 and 0.329 ± 0.04.
In the same order, the values of “TTTTTTGCTCAGCATGATGCTTTTTTTTTTTTTTTAGTCA [ACTGA]” are 0.529 ± 0.013 and 0.407 ± 0.029.
The like results for “TTTTTTGCTCAGCATGCGCATTTTTTTTTTTTTTTAGTAT [TATGA]” were, in that order, 0.554 ± 0.031 and 0.417 ± 0.028.
For “TTTTTTGCTCAGCATGCTCATTTTTTTTTTTTTTTAGTAG [GATGA]”, the background-corrected fluorescence runs as follows: (dye: Cy3 (3' terminal)) 0.605 ± 0.054; (dye: Cy5 (3' terminal)) 0.46 ± 0.032.
“TTTTTTGCTCAGCATGCTGATTTTTTTTTTTTTTTAGTAC [CATGA]” returned a background-corrected fluorescence (dye: Cy3 (3' terminal)) of 0.485 ± 0.006 and a background-corrected fluorescence (dye: Cy5 (3' terminal)) of 0.371 ± 0.027.
In the same order, the values of “TTTTTTGCTCAGCATGCTGCTTTTTTTTTTTTTTTAGTAA [AATGA]” are 0.563 ± 0.016 and 0.493 ± 0.037.
As for “TTTTTTGCTCATCAGCAGCATTTTTTTTTTTTTTTAGGTT [TTGGA]”, the background-corrected fluorescence by setting is: (dye: Cy3 (3' terminal)) 0.584 ± 0.022; (dye: Cy5 (3' terminal)) 0.464 ± 0.08.
As to “TTTTTTGCTCATCAGCATCATTTTTTTTTTTTTTTAGGTG [GTGGA]”, the background-corrected fluorescence worked out at 0.585 ± 0.025 (dye: Cy3 (3' terminal)) and 0.482 ± 0.017 (dye: Cy5 (3' terminal)).
In the same order, the values of “TTTTTTGCTCATCAGCATGATTTTTTTTTTTTTTTAGGTC [CTGGA]” are 0.459 ± 0.014 and 0.376 ± 0.019.
The like results for “TTTTTTGCTCATCAGCATGCTTTTTTTTTTTTTTTAGGTA [ATGGA]” were, in that order, 0.564 ± 0.027 and 0.465 ± 0.06.
In the case of “TTTTTTGCTCATCATCAGCATTTTTTTTTTTTTTTAGGGT [TGGGA]”, the background-corrected fluorescence is, setting by setting: (dye: Cy3 (3' terminal)) 0.7155 ± 0.0051; (dye: Cy5 (3' terminal)) 0.587 ± 0.027.
In the same order, the values of “TTTTTTGCTCATCATCATCATTTTTTTTTTTTTTTAGGGG [GGGGA]” are 0.69 ± 0.019 and 0.591 ± 0.028.
In the same order, the values of “TTTTTTGCTCATCATCATGATTTTTTTTTTTTTTTAGGGC [CGGGA]” are 0.598 ± 0.023 and 0.478 ± 0.064.
